Assay results reported in the RNAGym collection of RNA variant scans (doi:10.1021/acssynbio.7b00057).

B1: Pistol ribozyme (parent)
chain: GGGUCGUUGUUCCAUAAUCGCGUGGAUAUGGCACGCAAGUUUCUACCGGGCACCGUAAAUGUCCGACUGGAGCCGUUCGGGCGGCUAUAAACAGACCUCAGGCCCGAAGCGUGGCGGCACCUGCCGCCGGUGGUAAAAAAGAUCGGAAGAGCACACGUCU

Variants of: B1
Experiment: aptazyme ON/OFF ratio, guanine; higher = stronger switching; co-transcriptional cleavage with and without guanine

| Variant | aptazyme ON/OFF ratio |
| --- | --- |
| U7C U8A G9U U10A C12U C13A | 1.24 |
| U7C U8A G9U U10A C12U C13U | 1.19 |
| U7C U8A G9U U10A C12U C13G | 1.16 |
| U7C U8A G9U U10G U11G C12U | 1.25 |
| U7C U8A G9U U10G U11G C12G | 1.26 |
| U7C U8A G9U U10G U11G C12A | 1.16 |
| U7C U8A G9U U10A U11A C13G | 1.07 |
| U7C U8A G9U U10A U11A C13A | 1.13 |
| U7C U8A G9U U10A U11A C13U | 1.19 |
| U7C U8A G9C U11G C12U C13U | 1.13 |
| U7C U8A G9C U11G C12U C13A | 1.18 |
| U7C U8A G9C U11G C12U C13G | 1.14 |
| U7C U8A G9C U10G U11G | 1.1 |
| U7C U8A G9U U10C U11G C12A C13U | 1.1 |
| U7C U8A G9U U10C U11G C12A C13G | 1.09 |
| U7C U8A G9U U10C U11G C12A C13A | 1.11 |
| U7C U8A G9U U10C U11G C13U | 1.19 |
| U7C U8A G9U U10C U11G C13A | 1.18 |
| U7C U8A G9U U10C U11G C13G | 1.04 |
| U7C U8A G9U U10A C12A C13U | 1.22 |
| U7C U8A G9U U10A C12A C13A | 1.29 |

| Variant | aptazyme ON/OFF ratio |
| --- | --- |
| U7C U8A G9U U10A C12A C13G | 1.16 |
| U7C U8A G9C U10G U11G C12A C13U | 1.06 |
| U7C U8A G9C U10G U11G C12A C13A | 1.09 |
| U7C U8A G9C U10G U11G C12A C13G | 1.12 |
| U7C U8A G9C U11A C12G C13G | 1.17 |
| U7C U8A G9C U11A C12G C13A | 1.13 |
| U7C U8A G9C U11A C12G C13U | 1.14 |
| U7C U8A G9C U10G U11C C12U C13A | 1.19 |
| U7C U8A G9C U10G U11C C12U C13G | 1.27 |
| U7C U8A G9C U10G U11C C12U C13U | 1.34 |
| U7C U8A G9U U10G U11C C12G | 1.26 |
| U7C U8A G9U U10G U11C C12U | 1.07 |
| U7C U8A G9U U10G U11C C12A | 1.21 |
| U7C U8A G9U U10C U11A C12A C13G | 1.13 |
| U7C U8A G9U U10C U11A C12A C13A | 1.08 |
| U7C U8A G9U U10C U11A C12A C13U | 1.15 |
| U7C U8A G9U U10G U11A C12A | 1.34 |
| U7C U8A G9U U10G U11A C12U | 1.06 |
| U7C U8A G9U U10G U11A C12G | 1.21 |
| U7C U8A G9C U11A C12A | 1.1 |
| U7C U8A G9C U11A C12G | 1.12 |

| Variant | aptazyme ON/OFF ratio |
| --- | --- |
| U7C U8A G9C U11A C12U | 1.15 |
| U7C U8A G9U U10A U11G C12G | 1.14 |
| U7C U8A G9U U10A U11G C12U | 1.13 |
| U7C U8A G9U U10A U11G C12A | 1.08 |
| U7C U8A G9U C12G C13A | 1.21 |
| U7C U8A G9U C12G C13G | 1.21 |
| U7C U8A G9U C12G C13U | 1.22 |
| U7C U8A G9U U10G U11A C12A C13G | 1.09 |
| U7C U8A G9U U10G U11A C12A C13A | 1.35 |
| U7C U8A G9U U10G U11A C12A C13U | 1.21 |
| U7C U8A G9U U10C U11C C12U C13G | 1.02 |
| U7C U8A G9U U10C U11C C12U C13U | 1.02 |
| U7C U8A G9U U10C U11C C12U C13A | 1.03 |
| U7C U8A G9U U10G C13A | 1.41 |
| U7C U8A G9U U10G C13U | 1.31 |
| U7C U8A G9U U10G C13G | 1.08 |
| U7C U8A G9U U11A C13U | 1.17 |
| U7C U8A G9U U11A C13G | 1.05 |
| U7C U8A G9U U11A C13A | 1.2 |
| U7C U8A G9C U10G U11G C12A | 1.23 |
| U7C U8A G9C U10G U11G C12G | 1.13 |

| Variant | aptazyme ON/OFF ratio |
| --- | --- |
| U7C U8A G9C U10G U11G C12U | 1.12 |
| U7C U8A G9U U10G U11C C12G C13G | 1.23 |
| U7C U8A G9U U10G U11C C12G C13A | 1.22 |
| U7C U8A G9U U10G U11C C12G C13U | 1.24 |
| U7C U8A G9U U10C U11G C12U C13G | 1.13 |
| U7C U8A G9U U10C U11G C12U C13A | 1.12 |
| U7C U8A G9U U10C U11G C12U C13U | 1.15 |
| U7C U8A G9U C12U C13A | 1.09 |
| U7C U8A G9U C12U C13G | 1.14 |
| U7C U8A G9U C12U C13U | 1.29 |
| U7C U8A G9U U10C C12G C13A | 1.18 |
| U7C U8A G9U U10C C12G C13U | 1.22 |
| U7C U8A G9U U10C C12G C13G | 1.28 |
| U7C U8A G9U U10A U11C C12G C13A | 1.13 |
| U7C U8A G9U U10A U11C C12G C13G | 1.19 |
| U7C U8A G9U U10A U11C C12G C13U | 1.25 |
| U7C U8A G9U U11G C13A | 1.17 |
| U7C U8A G9U U11G C13G | 1.02 |
| U7C U8A G9C U11C C12A | 1.11 |
| U7C U8A G9C U11C C12U | 1.14 |
| U7C U8A G9C U11C C12G | 1.11 |
